Reference: doi:10.1101/2020.10.04.325654 (bioRxiv, 2020)

How the values were obtained:
GST-SdhA-CBM2 [1] = biological target: T1, GST-SdhA-CBM2 (Legionella pneumophila, UniProt Q6RCQ3 1029-1260); test: pull-down
GST-SdhA-CBM2 [2] = biological target: T1, GST-SdhA-CBM2; test: ELISA

B1: 6xHis-OCRL (enzyme)
chain: not shown
Question: Does B1 bind (GST-SdhA-CBM2 [1])?
Answer: binds

B2: His-tagged ASH/RhoGAP domain of OCRL (536aa-901aa) (domain or fragment)
chain: not shown
Question: Does B2 bind (GST-SdhA-CBM2 [2])?
Answer: binds
